Values of other authors as cited in paper PMC8667759.
pKd: −log10 of the molar value.

Columns and labels:
[1] = molecular target: Piezo1 (UniProt E2JF22)
[2] = molecular target: Cav3 (UniProt O43497)
UniProt O43497, sequence (O43497 whole entry): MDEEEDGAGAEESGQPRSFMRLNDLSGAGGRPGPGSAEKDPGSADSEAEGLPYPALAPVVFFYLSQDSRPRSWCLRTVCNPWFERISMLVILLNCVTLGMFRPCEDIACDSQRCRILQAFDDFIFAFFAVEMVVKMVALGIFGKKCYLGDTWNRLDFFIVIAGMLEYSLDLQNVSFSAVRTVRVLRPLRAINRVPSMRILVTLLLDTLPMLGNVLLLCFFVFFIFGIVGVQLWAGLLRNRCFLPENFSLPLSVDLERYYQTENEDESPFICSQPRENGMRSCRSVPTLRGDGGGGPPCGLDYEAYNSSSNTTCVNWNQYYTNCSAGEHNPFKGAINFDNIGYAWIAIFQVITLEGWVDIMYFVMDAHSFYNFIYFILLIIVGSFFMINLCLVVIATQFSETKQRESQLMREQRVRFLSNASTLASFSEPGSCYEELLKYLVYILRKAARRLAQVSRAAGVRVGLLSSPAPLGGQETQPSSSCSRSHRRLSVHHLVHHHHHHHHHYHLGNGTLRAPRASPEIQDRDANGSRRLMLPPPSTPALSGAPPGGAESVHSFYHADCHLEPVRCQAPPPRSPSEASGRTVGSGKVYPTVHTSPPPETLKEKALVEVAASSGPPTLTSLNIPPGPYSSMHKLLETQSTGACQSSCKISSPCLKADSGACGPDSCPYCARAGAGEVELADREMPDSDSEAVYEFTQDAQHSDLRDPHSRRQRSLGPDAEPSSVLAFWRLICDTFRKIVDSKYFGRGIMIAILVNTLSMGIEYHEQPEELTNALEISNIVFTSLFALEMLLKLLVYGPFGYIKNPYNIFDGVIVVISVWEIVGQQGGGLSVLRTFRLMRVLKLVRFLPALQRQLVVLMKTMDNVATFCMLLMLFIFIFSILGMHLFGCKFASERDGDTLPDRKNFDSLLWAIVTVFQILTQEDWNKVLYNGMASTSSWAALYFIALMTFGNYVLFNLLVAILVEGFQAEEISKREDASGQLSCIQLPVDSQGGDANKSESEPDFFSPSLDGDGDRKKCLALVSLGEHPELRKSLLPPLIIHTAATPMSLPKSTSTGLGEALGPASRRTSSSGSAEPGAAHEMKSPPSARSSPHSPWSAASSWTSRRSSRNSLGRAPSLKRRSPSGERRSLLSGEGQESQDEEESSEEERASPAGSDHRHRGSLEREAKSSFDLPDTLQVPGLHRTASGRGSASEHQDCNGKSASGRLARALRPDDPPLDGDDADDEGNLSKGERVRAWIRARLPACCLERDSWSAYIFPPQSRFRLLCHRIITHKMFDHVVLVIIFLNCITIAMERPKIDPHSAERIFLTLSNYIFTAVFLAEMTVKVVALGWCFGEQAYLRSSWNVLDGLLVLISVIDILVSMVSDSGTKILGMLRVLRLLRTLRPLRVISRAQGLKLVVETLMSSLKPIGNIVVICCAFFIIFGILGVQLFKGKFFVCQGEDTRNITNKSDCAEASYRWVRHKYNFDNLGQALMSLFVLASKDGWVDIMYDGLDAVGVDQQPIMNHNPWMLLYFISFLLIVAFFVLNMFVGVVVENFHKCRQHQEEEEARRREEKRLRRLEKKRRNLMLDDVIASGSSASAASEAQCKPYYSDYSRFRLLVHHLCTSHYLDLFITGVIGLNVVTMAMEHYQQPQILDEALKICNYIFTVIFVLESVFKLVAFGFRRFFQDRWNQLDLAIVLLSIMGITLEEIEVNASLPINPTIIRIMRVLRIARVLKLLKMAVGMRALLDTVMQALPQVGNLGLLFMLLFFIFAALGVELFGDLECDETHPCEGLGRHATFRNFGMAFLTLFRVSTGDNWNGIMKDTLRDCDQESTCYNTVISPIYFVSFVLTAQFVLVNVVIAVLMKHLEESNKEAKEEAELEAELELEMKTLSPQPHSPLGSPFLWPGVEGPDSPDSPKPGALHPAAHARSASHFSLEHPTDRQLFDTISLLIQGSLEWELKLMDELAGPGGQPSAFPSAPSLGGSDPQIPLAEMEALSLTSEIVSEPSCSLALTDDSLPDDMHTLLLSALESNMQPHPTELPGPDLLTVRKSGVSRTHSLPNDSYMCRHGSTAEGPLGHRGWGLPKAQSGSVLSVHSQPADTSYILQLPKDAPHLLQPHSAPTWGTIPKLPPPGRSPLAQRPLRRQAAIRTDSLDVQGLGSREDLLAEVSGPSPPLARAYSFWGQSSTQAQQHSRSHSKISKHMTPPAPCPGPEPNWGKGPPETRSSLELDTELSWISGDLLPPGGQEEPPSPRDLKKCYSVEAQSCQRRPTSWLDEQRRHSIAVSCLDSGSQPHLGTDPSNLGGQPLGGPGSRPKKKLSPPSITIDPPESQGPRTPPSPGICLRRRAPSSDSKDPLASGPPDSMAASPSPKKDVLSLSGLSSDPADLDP

UniProt E2JF22, sequence (E2JF22 whole entry): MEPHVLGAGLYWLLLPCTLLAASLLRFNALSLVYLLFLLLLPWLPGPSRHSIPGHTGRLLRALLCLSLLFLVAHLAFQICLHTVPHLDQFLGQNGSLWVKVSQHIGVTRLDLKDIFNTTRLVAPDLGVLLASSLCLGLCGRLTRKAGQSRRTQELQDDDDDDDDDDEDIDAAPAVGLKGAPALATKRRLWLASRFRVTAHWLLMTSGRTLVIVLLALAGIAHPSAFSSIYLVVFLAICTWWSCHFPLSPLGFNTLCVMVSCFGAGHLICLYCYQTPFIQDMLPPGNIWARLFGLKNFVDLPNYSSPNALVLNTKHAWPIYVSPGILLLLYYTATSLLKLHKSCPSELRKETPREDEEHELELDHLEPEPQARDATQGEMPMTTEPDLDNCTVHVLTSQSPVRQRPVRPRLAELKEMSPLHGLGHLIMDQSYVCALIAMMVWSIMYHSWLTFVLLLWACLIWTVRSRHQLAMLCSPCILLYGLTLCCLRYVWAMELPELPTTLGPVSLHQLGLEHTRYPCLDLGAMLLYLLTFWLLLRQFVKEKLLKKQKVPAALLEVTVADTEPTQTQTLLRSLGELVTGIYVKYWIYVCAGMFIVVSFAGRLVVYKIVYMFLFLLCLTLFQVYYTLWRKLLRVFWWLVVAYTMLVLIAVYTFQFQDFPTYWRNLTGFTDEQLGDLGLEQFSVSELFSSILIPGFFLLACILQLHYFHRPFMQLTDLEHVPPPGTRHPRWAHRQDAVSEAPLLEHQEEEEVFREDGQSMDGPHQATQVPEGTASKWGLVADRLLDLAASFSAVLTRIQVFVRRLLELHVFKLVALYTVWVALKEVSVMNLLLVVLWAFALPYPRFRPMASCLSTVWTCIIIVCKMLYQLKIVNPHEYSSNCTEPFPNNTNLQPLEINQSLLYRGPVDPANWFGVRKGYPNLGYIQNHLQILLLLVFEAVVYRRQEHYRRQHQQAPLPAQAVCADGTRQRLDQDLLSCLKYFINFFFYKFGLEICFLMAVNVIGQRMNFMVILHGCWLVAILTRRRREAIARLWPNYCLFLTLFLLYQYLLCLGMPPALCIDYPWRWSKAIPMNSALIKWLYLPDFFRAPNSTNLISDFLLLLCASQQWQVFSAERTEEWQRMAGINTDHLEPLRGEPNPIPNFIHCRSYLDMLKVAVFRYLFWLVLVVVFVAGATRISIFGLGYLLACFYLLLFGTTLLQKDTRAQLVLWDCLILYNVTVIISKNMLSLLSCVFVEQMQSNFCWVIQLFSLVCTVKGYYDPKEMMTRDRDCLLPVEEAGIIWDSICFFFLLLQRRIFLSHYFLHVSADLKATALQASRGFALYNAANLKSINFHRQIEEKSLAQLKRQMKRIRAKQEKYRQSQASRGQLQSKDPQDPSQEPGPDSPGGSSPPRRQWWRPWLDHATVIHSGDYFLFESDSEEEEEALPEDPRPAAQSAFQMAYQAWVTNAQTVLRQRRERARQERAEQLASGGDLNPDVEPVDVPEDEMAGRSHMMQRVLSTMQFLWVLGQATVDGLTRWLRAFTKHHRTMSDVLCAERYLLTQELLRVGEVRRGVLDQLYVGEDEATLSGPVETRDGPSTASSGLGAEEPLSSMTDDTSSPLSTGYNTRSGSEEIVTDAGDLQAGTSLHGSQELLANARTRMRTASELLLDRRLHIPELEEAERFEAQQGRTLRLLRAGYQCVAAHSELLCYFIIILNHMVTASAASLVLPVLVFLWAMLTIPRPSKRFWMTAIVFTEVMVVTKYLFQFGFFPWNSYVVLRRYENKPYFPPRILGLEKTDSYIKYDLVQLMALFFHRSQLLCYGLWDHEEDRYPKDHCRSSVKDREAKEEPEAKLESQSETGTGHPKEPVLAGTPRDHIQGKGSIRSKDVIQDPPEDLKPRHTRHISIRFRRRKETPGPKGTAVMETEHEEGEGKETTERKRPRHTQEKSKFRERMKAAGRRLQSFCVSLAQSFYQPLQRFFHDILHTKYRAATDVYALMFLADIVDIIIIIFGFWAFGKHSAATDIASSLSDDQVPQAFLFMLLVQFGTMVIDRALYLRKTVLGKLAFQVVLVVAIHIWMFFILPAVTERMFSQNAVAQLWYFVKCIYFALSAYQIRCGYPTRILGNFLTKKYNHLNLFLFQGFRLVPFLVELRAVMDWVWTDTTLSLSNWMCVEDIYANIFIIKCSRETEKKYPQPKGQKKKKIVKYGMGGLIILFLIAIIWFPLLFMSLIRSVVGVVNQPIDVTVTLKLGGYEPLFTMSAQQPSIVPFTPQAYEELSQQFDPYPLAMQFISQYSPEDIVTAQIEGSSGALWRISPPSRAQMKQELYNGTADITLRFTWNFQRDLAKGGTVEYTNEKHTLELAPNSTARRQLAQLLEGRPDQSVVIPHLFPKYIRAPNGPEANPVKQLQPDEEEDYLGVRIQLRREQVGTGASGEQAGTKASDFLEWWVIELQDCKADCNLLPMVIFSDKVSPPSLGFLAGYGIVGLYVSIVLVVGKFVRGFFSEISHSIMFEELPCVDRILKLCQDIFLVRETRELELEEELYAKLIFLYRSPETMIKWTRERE

| Substance | pKd [1] | pKd [2] |
| --- | --- | --- |
| GsMTx4 (from UniProt Q7YT39) | 6.81 |  |
| Kurtoxin (from UniProt P58910) |  | 7.82 |
